Laboratory results as given in article PMC6532946, “Structure and assembly of pilotin-dependent and -independent secretins of the type II secretion system” (PLoS Pathogens, 2019).

Assays:
[1] = target: EpsD secretin from V. vulnificus (cell-free synthesized, His-tagged) (V. vulnificus); test: cryo-EM structure; purified multimers in TN buffer with Zw3-14, Quantifoil holey carbon grids with an extra 2 nm carbon layer; 2D class averages of top views; C15 symmetry imposed in the reconstruction
[2] = target: the molecule itself; test: as above

EpsD secretin from V. vulnificus (cell-free synthesized, His-tagged) (natural protein)
stoichiometry N [1]: 15

B1: ExeD secretin from A. hydrophila (cell-free synthesized, His-tagged) (natural protein)
chain: TEYSASFKNADIEEFINTVGKNLSKTIIIEPSVRGKINVRSYDLLNEEQYYQFFLSVLDVYGFAVVPMDNGVLKVVRSKDAKTSAIPVVDETNPGIGDEMVTRVVPVRNVSVRELAPLLRQLNDNAGGGNVVHYDPSNVLLITGRAAVVNRLVEVVRRVDKAGDQEVDIIKLKYASAGEMVRLVTNLNKDGNSQGGNTSLLLAPKVVADERTNSVVVSGEPKARARIIQMVRQLDRDLQSQGNTRVFYLKYGKAKDMVEVLKGVSSSIEADKKGGGTATTAGGGASIGGGKLAISADETTNALVITAQPDVMAELEQVVAKLDIRRAQVLVEAIIVEIADGDGLNLGVQWANTNGGGTQFTNAGPGIGSVAIAAKDYKDNGTTTGLAKLAENFNGMAAGFYQGNWAMLVTALSTNTKSDILSTPSIVTMDNKEASFNVGQEVPVQTGTQNSTSGDTTFSTIERKTVGTKLVVTPQINEGDSVLLTIEQEVSSVGKQATGTDGLGPTFDTRTVKNAVLVKSGETVVLGGLMDEQTKEEVSKVPLLGDIPVLGYLFRSTSNNTSKRNLMVFIRPTILRDANVYSGISSNKYTLFRAQQLDAVAQEGYATSPDRQVLPEYGQDVTMSPEAQKQIELMKTHQQATADGVQPFVQGNK
notes: ExeD, T2SS secretin of Aeromonas hydrophila; a TEV cleavage site linker lies between the His-6 tag and the protein. numbers count on: the mature protein; No TEV cleavage is described; also called pilotin-independent ExeD; GspD; source: cell-free expression system with liposomes, extracted as multimers with Zw3-14, purified (Ni-NTA, Superose 6); copies: 15
stoichiometry N [2]: 15
